Experimental data as given in patent US20030023038A1 (Biogen, published 2003).

Assays:
[1] = target: human full length BAFF (construct PS544), found cleaved in the conditioned media (human, UniProt Q9Y275 134-285); assay: co-transfection in 293T, anti-FLAG (M2) immunoprecipitation of conditioned media, western blot with anti-BAFF 53.14
Protocol: At 48 hrs. post-transfection, conditioned media was collected and used for immunoprecipitation experiments. The immunoprecipitation samples contained 200 μl of conditioned media, 5 μg/ml of the anti-FLAG antibody M2 (Sigma) and 800 μl of DMEM containing 10% FCS, glutamine, Pen-Strep, G418 and sodium azide and were incubated at 4° C. for 1 hour, with agitation. Then, 30 μl of ProteinA-Sepharose beads (Pharmacia) was added to the samples and the mixture was incubated overnight at 4° C. with agitation. The beads were collected by centrifugation and then washed one time with the DMEM media described above and then 3 times with PBS. The final pellet containing the beads was then suspended in 2× SDS non-reducing sample buffer and boiled for 5 minutes. The beads were spun out and 25 μl of the supernatant was loaded onto 2 separate 4-20% SDS-PAGE gradient gels (Novex). In order to examine the level of ligand expression, non-immunoprecipitated conditioned media from the co-transfected cells were also loaded. These samples were diluted two fold with 2× non-reducing sample buffer, boiled for 2 min. and then 25 μl was loaded into each lane. Each gel contained a set of immunoprecipitations and a set of non-immunoprecipitated conditioned media. […] The filters were again washed 3 times and then detected using ECL reagents (Amersham). […]

[2] = target: T1, human soluble myc-BAFF Q136 (human, UniProt Q9Y275 136-285); assay: co-transfection in 293T, anti-FLAG (M2) immunoprecipitation of conditioned media, western blot with anti-myc 9E10
T1 construct: also called plasmid #JST556
Source text: Plasmids encoding the following human soluble TNF family ligands were constructed with the indicated N-terminal epitope tags beginning at the ligand amino acid residue indicated in a PCR3 based mammalian cell expression vector: FLAG-APRIL, beginning with residue A105 (plasmid #LT033) or H115 (plasmid #LT038), FLAG-TWEAK A106 (plasmid #PS288), myc-APRIL A105 (plasmid #JST557), and myc-BAFF Q136 (plasmid #JST556). […] At 48 hrs. post-transfection, conditioned media was collected and used for immunoprecipitation experiments. The immunoprecipitation samples contained 100 μl of conditioned media, 5 μg/ml of the anti-FLAG antibody M2 (Sigma, St Louis, Miss.) and 900 μl of DMEM containing 10% FCS, glutamine, Pen-Strep, G418 and sodium azide and were incubated at 4° C. for 1 hour, with agitation. Then, 30 μl of ProteinA-Sepharose beads (Amersham Pharmacia, Piscataway, N.J.) was added to the samples and the mixture was incubated overnight at 4° C. with agitation. The beads were collected by centrifugation and then washed one time with the DMEM media described above and then 3 times with PBS. The final pellet containing the beads was then suspended in 2× SDS non-reducing sample buffer and boiled for 5 minutes. […] The filter was again washed 3 times and then detected using ECL reagents (Amersham Pharmacia, Piscataway, N.J.). […]

T1 sequence (Q9Y275 136-285): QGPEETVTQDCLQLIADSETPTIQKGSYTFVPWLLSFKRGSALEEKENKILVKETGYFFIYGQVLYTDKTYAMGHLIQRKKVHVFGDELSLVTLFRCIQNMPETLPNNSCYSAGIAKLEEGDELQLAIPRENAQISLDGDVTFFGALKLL

binding result [1]: no binding
binding result [2]: no binding
B1: soluble FLAG-tagged human TWEAK beginning at A106 (ligand, UniProt O43508 106-249, looked up, not shown: small tags and cut ends)
chain: AIAAHYEVHPRPGQDGAQAGVDGTVSGWEEARINSSSPLRYNRQIGEFIVTRAGLYYLYCQVHFDEGKAVYLKLDLLVDGVLALRCLEEFSATAASSLGPQLRLCQVSGLLALRPGSSLRIRTLPWAHLKAAPFLTYFGLFQVH
notes: also called FLAG-TWEAK A106; plasmid PS288
